Drawing on patent US20210085781A1, this text covers mean fold increase of OD450 for 1 substance.

This assay concerns the target recombinant SARS-CoV-2 S1 protein expressed from insect (Sf9) cells (S1-His, SinoBiological, Cat. No. 40591-V08B1) (SARS-CoV-2) (UniProt P0DTC2). Put plainly: ELISA, coated S1 from Sf9 cells, HRP-conjugated lectin 10 ug/mL. For orientation: In an ELISA, binding on a coated surface is turned into a signal by an enzyme label.

“Salvia sclarea lectin (SSA; Cat. No: H-3501-1)”: the mean fold increase of OD450 came out at 3.97 fold.
